These results are taken from patent US20070197446A1, “MHC binding peptides and their uses” (ProImmune Limited, priority 2006, published 2007).

In experiment [1] the target is HLA-B*3501.
The target in experiment [2] is HLA-B*3501. Kind of experiment: MHC-peptide assembly over 24 h, ELISA with conformational antibody; reading minus pass/fail control.

Like-named read-outs stand apart in the source and are kept apart here.

Turning to FAIVSLVKS (modifications not checked) [… (SEQ ID NO: 13)], in the experiment with HLA-A*0201, the ELISA (Absorption-Pass/Fail Control) turned out to be 0.07 absorption.
In the case of VAGWLLGNP (modifications not checked) [… (SEQ ID NO: 37)], the ELISA (Absorption-Pass/Fail Control) with HLA-B*0801 came to 0.04 absorption.
As for IVSLVKSDQ (modifications not checked) [… (SEQ ID NO: 15)], in the experiment with HLA-A*0201, the ELISA (Absorption-Pass/Fail Control) is 0.04 absorption.
For SLVKSDQIC (modifications not checked) [… (SEQ ID NO: 16)], the figures for the ELISA (Absorption-Pass/Fail Control) with HLA-A*0201 and with HLA-B*3501 [1] were 0.09 absorption and -0.03 absorption, respectively.
Regarding LVKSDQICI (modifications not checked) [… (SEQ ID NO: 29)], the ELISA (Absorption-Pass/Fail Control) was -0.06 absorption with HLA-B*0702 and 0.04 absorption in the experiment with HLA-B*3501 [1].
For LGNPMCDEF (modifications not checked) [… (SEQ ID NO: 43)], in the experiment with HLA-B*3501 [1], the ELISA (Absorption-Pass/Fail Control) is 0.35 absorption.
With LILRDCSVA (modifications not checked) [… (SEQ ID NO: 23)], the values for the ELISA (Absorption-Pass/Fail Control) in the experiment with HLA-A*0201 and with HLA-B*0801 were 0.57 absorption and 0.07 absorption, respectively.
For the molecule AIVSLVKSD (modifications not checked) [… (SEQ ID NO: 14)], the ELISA (Absorption-Pass/Fail Control) with HLA-A*0201 came to 0.43 absorption.
Consider WLLGNPMCD (modifications not checked) [… (SEQ ID NO: 38)], for which the ELISA (Absorption-Pass/Fail Control) with HLA-B*0801 came to 0.03 absorption.
In turn, VLLFAIVSL (modifications not checked) [… (SEQ ID NO: 11)] returned an ELISA (Absorption-Pass/Fail Control) in the experiment with HLA-A*0201 of 0.47 absorption.
NVPEWSYIV (modifications not checked) [… (SEQ ID NO: 25)] gave an ELISA (Absorption-Pass/Fail Control) with HLA-A*0201 of 1.03 absorption.
In the experiment with HLA-A*0201, AQDILEKKH (modifications not checked) [… (SEQ ID NO: 21)] had an ELISA (Absorption-Pass/Fail Control) of 0.15 absorption.
Regarding ILRDCSVAG (modifications not checked) [… (SEQ ID NO: 30)], the ELISA (Absorption-Pass/Fail Control) with HLA-B*0702 is 0.03 absorption.
For DTIMEKNVT (modifications not checked) [… (SEQ ID NO: 32)], in the experiment with HLA-B*0801, the ELISA (Absorption-Pass/Fail Control) was determined as 0.08 absorption.
As for VSLVKSDQI (modifications not checked) [… (SEQ ID NO: 31)], the ELISA (Absorption-Pass/Fail Control) with HLA-B*0801 came out at 0.36 absorption.
As to KSDQICIGY (modifications not checked) [… (SEQ ID NO: 9)], the ELISA (Absorption-Pass/Fail Control) was found to be 0.47 absorption with HLA-A*0101 and 0.05 absorption with HLA-A*0301.
IMEKNVTVT (modifications not checked) [… (SEQ ID NO: 19)] came in with an ELISA (Absorption-Pass/Fail Control) with HLA-A*0201 of 0.02 absorption.
For the molecule TIMEKNVTV (modifications not checked) [… (SEQ ID NO: 18)], the results for the ELISA (Absorption-Pass/Fail Control) with HLA-A*0201, in the experiment with HLA-B*0702 and in the experiment with HLA-B*0801 were 0.99 absorption, 0 absorption and 0.8 absorption, respectively.
In turn, PLILRDCSV (modifications not checked) [… (SEQ ID NO: 36)] displayed an ELISA (Absorption-Pass/Fail Control) with HLA-B*0801 of 0.65 absorption.
As to KLCDLDGVK (modifications not checked) [… (SEQ ID NO: 22)], the ELISA (Absorption-Pass/Fail Control) with HLA-A*0201 stood at 0.2 absorption; with HLA-A*0301, 1.16 absorption.
GNPMCDEFI (modifications not checked) [… (SEQ ID NO: 39)] showed an ELISA (Absorption-Pass/Fail Control) with HLA-B*0801 of 0.04 absorption.
Molecule PMCDEFINV (modifications not checked) [… (SEQ ID NO: 24)] had an ELISA (Absorption-Pass/Fail Control) with HLA-A*0201 of 0.98 absorption.
VTHAQDILE (modifications not checked) [… (SEQ ID NO: 33)]: the ELISA (Absorption-Pass/Fail Control) with HLA-B*0801 was found to be 0.31 absorption.
In the experiment with HLA-B*0801, DILEKKHNG (modifications not checked) [… (SEQ ID NO: 34)] showed an ELISA (Absorption-Pass/Fail Control) of 0.53 absorption.
Take FINVPEWSY (modifications not checked) [… (SEQ ID NO: 10)]: the ELISA (Absorption-Pass/Fail Control) with HLA-A*0101 stood at 0.16 absorption; with HLA-B*3501 [1] it was 0.57 absorption.
Molecule AGWLLGNPM (modifications not checked) [… (SEQ ID NO: 42)] yielded an ELISA (Absorption-Pass/Fail Control) with HLA-B*3501 [1] of -0.06 absorption.
Regarding ILEKKHNGK (modifications not checked) [… (SEQ ID NO: 28)], the ELISA (Absorption-Pass/Fail Control) was -0.01 absorption with HLA-A*0301 and 0.95 absorption in the experiment with HLA-B*0801.
For NVTVTHAQD (modifications not checked) [… (SEQ ID NO: 27)] the same measures were -0.04 absorption and 0.08 absorption.
The molecule KPLILRDCS (modifications not checked) [… (SEQ ID NO: 35)] had an ELISA (Absorption-Pass/Fail Control) with HLA-B*0801 of 0.1 absorption.
For the molecule LFAIVSLVK (modifications not checked) [… (SEQ ID NO: 40)], the ELISA (Absorption-Pass/Fail Control) with HLA-B*3501 [1] was 0.1 absorption.
Consider HANNSTEQV (modifications not checked) [… (SEQ ID NO: 17)], for which the ELISA (Absorption-Pass/Fail Control) in the experiment with HLA-A*0201 and in the experiment with HLA-B*3501 [1] was 0.43 absorption throughout.
In the experiment with HLA-B*3501 [2], HPVGEADYFEY (modifications not checked) [… (SEQ ID NO: 8)] displayed an ELISA (Absorption-Pass/Fail Control) of 0.55 absorption.
The molecule MEKNVTVTH (modifications not checked) [… (SEQ ID NO: 20)] came in with an ELISA (Absorption-Pass/Fail Control) with HLA-A*0201 of -0.02 absorption.
Same read-out and setting: the same measure for LLFAIVSLV (modifications not checked) [… (SEQ ID NO: 12)]: 1.06 absorption.
